Results: IntAct's records for PubMed 17409324

B1: Vang-like protein 1 (Homo sapiens), Q8TAA9 (parent)
chain: MDTESTYSGYSYYSSHSKKSHRQGERTRERHKSPRNKDGRGSEKSVTIQPPTGEPLLGNDSTRTEEVQDDNWGETTTAITGTSEHSISQEDIARISKDMEDSVGLDCKRYLGLTVASFLGLLVFLTPIAFILLPPILWRDELEPCGTICEGLFISMAFKLLILLIGTWALFFRKRRADMPRVFVFRALLLVLIFLFVVSYWLFYGVRILDSRDRNYQGIVQYAVSLVDALLFIHYLAIVLLELRQLQPMFTLQVVRSTDGESRFYSLGHLSIQRAALVVLENYYKDFTIYNPNLLTASKFRAAKHMAGLKVYNVDGPSNNATGQSRAMIAAAARRRDSSHNELYYEEAEHERRVKKRKARLVVAVEEAFIHIQRLQAEEQQKAPGEVMDPREAAQAIFPSMARALQKYLRITRQQNYHSMESILQHLAFCITNGMTPKAFLERYLSAGPTLQYDKDRWLSTQWRLVSDEAVTNGLRDGIVFVLKCLDFSLVVNVKKIPFIILSEEFIDPKSHKFVLRLQSETSV
partner: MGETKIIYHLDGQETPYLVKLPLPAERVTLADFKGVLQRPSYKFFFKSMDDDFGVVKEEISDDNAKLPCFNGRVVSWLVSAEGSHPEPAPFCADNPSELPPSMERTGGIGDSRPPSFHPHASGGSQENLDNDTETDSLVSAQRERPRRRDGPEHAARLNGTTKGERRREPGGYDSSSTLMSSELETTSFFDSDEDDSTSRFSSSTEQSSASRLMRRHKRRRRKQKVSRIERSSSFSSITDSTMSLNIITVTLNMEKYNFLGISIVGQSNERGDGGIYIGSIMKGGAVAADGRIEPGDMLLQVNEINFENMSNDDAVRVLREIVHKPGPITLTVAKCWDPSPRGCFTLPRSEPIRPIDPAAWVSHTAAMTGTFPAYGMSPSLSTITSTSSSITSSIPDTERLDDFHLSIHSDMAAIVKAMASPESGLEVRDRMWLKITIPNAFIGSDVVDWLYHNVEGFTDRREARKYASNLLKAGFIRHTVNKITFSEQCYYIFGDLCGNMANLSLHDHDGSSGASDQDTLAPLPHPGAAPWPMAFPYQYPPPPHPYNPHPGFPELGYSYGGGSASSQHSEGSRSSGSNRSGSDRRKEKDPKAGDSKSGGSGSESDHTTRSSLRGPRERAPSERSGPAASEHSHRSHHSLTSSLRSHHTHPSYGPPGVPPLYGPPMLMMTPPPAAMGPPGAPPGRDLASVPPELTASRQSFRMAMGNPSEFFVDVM

Variants of: B1
Conditions: with dvl3_mouse Dvl3, Q61062

Variant	effect of a mutation on the interaction
R274Q	with no effect
D259E	disrupting interaction strength

Further lines, results first:

effect of a mutation on the interaction	Variant
with no effect	S467N
with no effect	M328T
